{"source": "patent US10364299B2", "about": "“Derivatives obtained from hyaluronic acid and carnosine” (CONSIGLIO NAZIONALE DELLE RICERCHE, priority 2014, dated 2019)", "key": {"[1]": {"molecular_target": "T1, human serum carnosinase (CN1) (Homo sapiens, UniProt Q96KN2)", "T1 construct": "made in house; host or cells: HeLa cells, stably transfected; enzyme purified from the culture medium", "T1 sequence (Q96KN2 26-507)": "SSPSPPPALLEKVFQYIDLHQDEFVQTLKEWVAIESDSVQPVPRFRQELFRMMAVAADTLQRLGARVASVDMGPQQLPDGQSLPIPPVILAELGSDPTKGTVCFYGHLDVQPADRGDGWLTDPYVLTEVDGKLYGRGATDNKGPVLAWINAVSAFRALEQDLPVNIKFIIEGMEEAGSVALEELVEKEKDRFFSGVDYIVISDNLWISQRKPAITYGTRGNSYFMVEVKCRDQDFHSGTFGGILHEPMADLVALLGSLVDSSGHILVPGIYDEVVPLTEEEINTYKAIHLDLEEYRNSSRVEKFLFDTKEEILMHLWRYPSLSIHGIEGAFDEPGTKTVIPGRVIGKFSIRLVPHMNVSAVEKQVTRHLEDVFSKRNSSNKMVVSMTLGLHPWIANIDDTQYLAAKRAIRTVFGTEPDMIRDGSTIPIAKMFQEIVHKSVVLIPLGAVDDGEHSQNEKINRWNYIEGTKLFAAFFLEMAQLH", "experiment": "Enzymatic hydrolysis by human serum carnosinase", "type": "in vitro ADME", "settings": "900 μM, 37°C, 50 mM Tris/HCl pH 8.0, 5 hours; versus non-conjugated carnosine", "method": "The time-dependent stability of HyCar with respect to human serum carnosinase, compared with the stability of the mixture of carnosine+HA or carnosine alone, was determined by incubating each of these substances (900 μM) at 37° C. in 50 mM Tris/HCl (pH 8.0) with the above-mentioned enzyme (CN1), purified by the culture medium of Hela cells stably transfected as previously indicated (Antioxid. Redox Signal., 11, 2759, 2009). A parallel experiment was effected as negative control, in which hyaluronic acid alone was subjected to enzymatic action. The course of the reaction was followed by collecting, at various time intervals, 50 μl aliquots of the mixture for a total of 5 hours, and, after deproteinization with trichloroacetic acid (TCA), fluorometrically determining the quantity of histidine in the final solution, after reaction with ortho-phthalic aldehyde (OPA; Fluka), according to a procedure already described (Clin. Chim. Acta, 1982, 123, 221).\nMore specifically, FIG. 5 indicates the stability with time of HyCar (●), subjected to the action of human serum carnosinase, compared with the stability of carnosine (▪), carnosine+HA (▴), and HA alone (♦)(the latter used as negative control of the experiment). The histidine released was spectrophotometrically determined as OPA-derivative."}, "[2]": {"experiment": "Intrinsic viscosity by size exclusion chromatography with triple detector", "type": "physicochemical", "settings": "for Intrinsic viscosity: 40°C, 0.1M sodium nitrate", "method": "Experiments aimed at determining the molecular weight distribution (MWD) and the intrinsic viscosity of the conjugated HyCar were effected on a CPG/SEC chromatographic system equipped with a Malvern triple detector (ViscoteckTDmax).\nThe parameters indicated above were determined by means of size exclusion chromatography carried out on the chromatographic system GPCmax VE 2001 (Malvern), equipped with two TSK-GEL GMPWXL columns (7.8 mm ID×30 cm; Viscotek-TOSOH BIOSCIENCE) installed in series. The system is coupled with a system of three detectors positioned in series and comprising: a refraction index detector, a light scattering detector and a four-capillary differential viscometer. The sample was eluted using an aqueous solution 0.1M of sodium nitrate containing 0.5 g/L of sodium azide with a flow of 0.6 ml/min, at 40° C. The software Omnisec 4.1 was used for the acquisition and data analysis.\nThe physical parameters relating to the intrinsic viscosity and molecular weight (MW), determined at different concentrations for the conjugate of hyaluronic acid-carnosine, compared with those of the corresponding hyaluronic acid, determined by means of size exclusion chromatography coupled with a triple detector, are indicated in Table 1 below."}}}
{"substance": "conjugated 3-N-hyaluronyl of 2-(3-aminopropanamide)-3-(1H-imidazol-4-yl)propanoic acid [HyCar (7%)190 kD]", "values": [{"measurement": "resistance to the action of human serum carnosinase", "setting": "[1]", "result": "greater resistance"}, {"measurement": "intrinsic viscosity compared with non-conjugated hyaluronic acid of the same MW (in words)", "setting": "[2]", "result": "only slightly lower"}, {"measurement": "Intrinsic viscosity", "setting": "[2]; theoretical conc. 0.1 mg/ml", "result": 4.9, "unit": "dL/g"}, {"measurement": "Intrinsic viscosity", "setting": "[2]; theoretical conc. 0.25 mg/ml", "result": 4.8, "unit": "dL/g"}, {"measurement": "Intrinsic viscosity", "setting": "[2]; theoretical conc. 0.5 mg/ml", "result": 4.8, "unit": "dL/g"}]}
